According to paper PMC7692627:

B1: F17 (ssDNA)
DNA: TGACACCGTACCTGCTCTGCCGTAGTGATCCTCCTTAACAGTGACCTATAGATCGTTCGTCGTATTTGCTTTGACAATCCTTCTCAGATACTCTCCCGAAGCACGCCAGGGACTAT
B2: R13 (ssDNA)
DNA: ATAGTCCCTGGCGTGCTTGCATGCTTGGCCCTGCACCGCCTTCGGTCTTTCGCCGACCTCGTCGTTTATTCTATCGGGTTATAAGGATAATGCGGGGTAGAGCAGGTACGGTGTCA

Biological target: His-P10 outer capsid protein (Rice black-streaked dwarf virus (RBSDV), UniProt D2Y4Q6 1-558)
Assay: ELONA
Details: protein: recombinant; tags: N-terminal 6xHis (pET-15b)

| Binder | binding signal |
| --- | --- |
| B1 | 7.55 A450 ratio P10/BSA |
| B2 | 1.26 A450 ratio P10/BSA |
